Data set [1] can be described thus: Urea titration of emission intensity spectra (Nanodrop3300) with ratiometric analysis, singly labeled conjugates. The following applies: urea response. The arrangement: key: m, monochromatic; d, dichromatic (i.e. spectral shape change). It is filed as binding. The text has this: (§1) Determination of emission intensity spectra.
(§2) Ratiometric analysis of urea binding. […] 2
(§3) For a single urea-binding site, the fractional saturation is given by
(§4) [formula] where [L] is the ligand (urea) concentration and Kd the dissociation constant, ^trueKd for ytrue.
(§5) [formula] where ^appIλ2 and ^satIλ2 are the emission intensities of the monochromatic signal at wavelength λ2 of the ligand-free and ligand-bound protein, respectively.

Test in data set [2]: as above
It is filed as binding.
Source text: as §1, §2, §3, §4, §5

A short description of data set [3]: Temperature- and urea-dependent fluorescence landscapes of fluorescent conjugates (Roche LightCycler). Type of data set: binding. The following applies: Acrylodan conjugate; fluorescent response to urea. The arrangement: key: y, yes; n, no. Put shortly:
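Acrylodan or Badan was attached to single-cysteine csUBP7 mutants and fluorescence was recorded over 0–4.8 M urea in 20 mM KCl, 20 mM MOPS (pH 7.4), with temperature stepped by 1K. Urea Kd came from ratiometric single-site fits, and Kd values across temperatures were fit to the Gibbs-Helmholtz equation.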

Data set [4] can be described thus: Urea titration of emission intensity spectra (Nanodrop3300) with ratiometric analysis, singly labeled conjugates. Type of data set: binding. The arrangement: key: m, monochromatic; d, dichromatic (i.e. spectral shape changes); 0, no change. The following applies: urea response.
Source text: as §1, §2, §3, §4, §5

A short description of data set [5]: Thermal stability of purified UBP candidates (SYPRO Orange thermal melt, Roche LightCycler). It is filed as physicochemical. Conditions: apo-protein; SYPRO Orange monitors unfolded protein. The procedure:
The urea-binding properties of these leads were determined experimentally (Table 4). These experiments comprise four successive steps: • 1. Synthetic gene construction. […] Heterologous protein expression of the homologues in E. coli. […] Verification of urea binding.
Analysis of urea-binding properties using thermal melts.

Setting [6] is: ctUBP6 Acrylodan conjugate, urea, nb = no binding, read-out: ^appKd.
[7] abbreviates: ctUBP6 Badan conjugate, urea, ^d = noisy data and or bad fit, read-out: ^appKd.
The mark [8] stands for this setting: ctUBP6 Badan conjugate, urea, ^d = noisy data and or bad fit, read-out: ^trueKd.
The mark [9] stands for this setting: ctUBP6 Acrylodan conjugate, urea, nb = no binding, read-out: ^trueKd.
Setting [10] is: ctUBP6 Acrylodan conjugate, urea, nb = no binding.

Residue numbers refer to the chain shown, from its start. Names may count otherwise. Where two headings read alike, the source gives them in different places. Marks after values point to notes of the source that are not given here.

B1: ctUBP6 T96C: ctUBP6 96C cysteine mutant (SEQ ID NO: 50), tested as Acrylodan and Badan conjugates (conjugate)
chain: MVEEPVDNKPGTDTSAEDTIKVGILHSLSGTMAISEVSLKDAELMAIEEINQAGGLLGKKIEPVIEDGASDWPTFAEKAKKLLQNDKVATVFGCWCSASRKAVLPVFEENNGLLWYPVQYEGMESSPNIFYTGAAPNQQIVPAVEWLLENKGKRFFLLGSDYVFPRTANKIIKAQLSAIGGELIAEEYTPLGHTDYSTIVNKIKTAKPDVVFNTLNGDSNVAFFKQLKDAGITSEDITVCSVSVAEEEIRGIGAENIKGHLVSWNYYQTTDTPENKEFVEKYKSKYGSDRVTDDPIEAAYIAVHLWAEAVKKAGSFEVEKVKEAAKGLEFKAPEGLVKIEGENQHLWKPVRIGEVQEDGLIKEIWSTSEAVRPDPYLKTYDWAKGLSDGGSHHHHHH
modifications: Acrylodan or Badan conjugate; ctUBP6_96C (96C substitution mutant with signal peptide replaced with M and a GGSHHHHHH at C-terminus)
Take B1: the Shape result in data set [1] (ctUBP6 Acrylodan conjugate) and in data set [1] (ctUBP6 Badan conjugate) was “d” throughout. The Kd worked out at 0.52 mM in data set [2] (setting [6]), 0.62 mM in data set [2] (setting [7]) and 0.5 mM in data set [2] (setting [8]). Besides, the Response entry in data set [3] is “n”.

B2: ctUBP6 F164C: ctUBP6 164C cysteine mutant (SEQ ID NO: 53), tested as Acrylodan and Badan conjugates (conjugate)
chain: B1 chain with C96T, F164C
modifications: Acrylodan or Badan conjugate; ctUBP6_164C (164C substitution mutant with signal peptide replaced with M and a GGSHHHHHH at C-terminus)
Turning to B2, the Shape entry in data set [1] (ctUBP6 Acrylodan conjugate) and in data set [1] (ctUBP6 Badan conjugate) was “d” each time. The Kd in data set [2] (setting [6]) turned out to be 23 mM; in data set [2] (setting [9]), 22 mM; in data set [2] (setting [7]), 9.4 mM; in data set [2] (setting [8]), 11 mM. Moreover, in data set [3], the Response entry is reported as “y”.

B3: ctUBP6 W95C: ctUBP6 95C cysteine mutant (SEQ ID NO: 49), tested as Acrylodan and Badan conjugates (conjugate)
chain: B1 chain with W95C, C96T
modifications: Acrylodan or Badan conjugate; ctUBP6_95C (95C substitution mutant with signal peptide replaced with M and a GGSHHHHHH at C-terminus)
Take B3: the Shape result in data set [4] (ctUBP6 Acrylodan conjugate) and in data set [4] (ctUBP6 Badan conjugate) was “m” in each case. Further, the Response entry in data set [3] is “y”.

B4: ctUBP6 L191C: ctUBP6 191C cysteine mutant (SEQ ID NO: 54), tested as Acrylodan and Badan conjugates (conjugate)
chain: B1 chain with C96T, L191C
modifications: Acrylodan or Badan conjugate; ctUBP6_191C (191C substitution mutant with signal peptide replaced with M and a GGSHHHHHH at C-terminus)
On to B4, for which the Shape result in data set [4] (ctUBP6 Acrylodan conjugate) and in data set [4] (ctUBP6 Badan conjugate) was “m” each time. Besides, the Kd in data set [2] (setting [6]) stood at 0.15 mM; in data set [2] (setting [9]) it was 0.11 mM; in data set [2] (setting [7]) it was 0.31 mM; in data set [2] (setting [8]), 0.34 mM. Further, the Response result in data set [3] was “y”.

B5: ctUBP6 A98C: ctUBP6 98C cysteine mutant (SEQ ID NO: 52), tested as Acrylodan and Badan conjugates (conjugate)
chain: B1 chain with C96T, A98C
modifications: Acrylodan or Badan conjugate; ctUBP6_98C (98C substitution mutant with signal peptide replaced with M and a GGSHHHHHH at C-terminus)
Turning to B5, the Shape result in data set [4] (ctUBP6 Acrylodan conjugate) is “m”. In data set [4] (ctUBP6 Badan conjugate), the Shape entry is on record as “m”. Besides, in data set [2] (setting [10]), the “^appKd” value was “nb” and the “^trueKd” value was “nb”. In data set [3], the Response entry is recorded as “y”.

B6: ctUBP6 S97C: ctUBP6 97C cysteine mutant (SEQ ID NO: 51), tested as Acrylodan and Badan conjugates (conjugate)
chain: B1 chain with C96T, S97C
modifications: Acrylodan or Badan conjugate; ctUBP6_97C (97C substitution mutant with signal peptide replaced with M and a GGSHHHHHH at C-terminus)
For the molecule B6, the Shape entry is given as “m” in data set [4] (ctUBP6 Acrylodan conjugate) and “m/d” in data set [2] (ctUBP6 Badan conjugate, urea response). The Kd amounted to 79 mM in data set [2] (setting [6]), 84 mM in data set [2] (setting [9]), 69 mM in data set [2] (setting [7]) and 95 mM in data set [2] (setting [8]). Further, in data set [3], the Response entry is given as “n”.

B7: teUBP12: urea-binding protein from Thermosynechococcus elongatus with FATT domain, SEQ ID NO: 22 (protein)
chain: MAEESDNVDSADAEEDDSDVWWGGADTDYADGSEDKVVEVAEEEEVAEVEEEEADDDEDDEDGDEVEEEAEEPYEEATERTTSIATTTTTTTESVEEVLEVLFQGPGGDTIKVGILHSLSGTMAISEKSVVDATQLAIEQINQAGGVLGKQIQPILEDGASDWPTFAEKATKLIDQDKVVAVFGAWTSASRKAVLPVFESKNHMLWYPVQYEGQEASKNIFYTGAAPNQQIEPAVDWLLQNKGKKFFLVGSDYVFPRTANTIIKAQLAAKGGETVGEDYLPLGNTEVTPIITRIRNALPDGGVIFNTLNGDSNVAFFKQLQGAGLTPDKYPTMSVSIAEEEVQAIGVEYLKGHYAAWNYFMTVDTPENKSFVEAFKAKFGQNRVTNDPMEAAYIAVHLWKQAVEQAGTADDLEKVRQAAIGQTFNAPEGPVKMFANHHISKTVRIGEVGEDGLFKIVYSTPQPVDPLPWNQFVAETKGFAADWTRTDVDNPGKFKAAGAGGSHHHHHH
modifications: teUBP12 (with signal peptide replaced with M, which is followed by a FATT domain, followed by a sequence fragment for C3 protease, and with a GGSHHHHHH at C-terminus, as well as C185A, C216A, and C481A mutations)
As for B7, the “Thermostability ^apoTm” value in data set [5] came to 84 °C.

B8: bsUBP3: urea-binding protein from Bacillus sp., SEQ ID NO: 14 (protein)
chain: MKVGILHSLSGTMAISEVSVHDAELIAIQEINQKGGVLGKKLEPVVEDGASDWPTYAEKMRKLLQQDKVAAVFGGWTSASRKAMLPVVEQNNGLLFYPVQYEGMETSPNIFYTGATTNQQIVPAVDWLLKNKGKKFFLIGSDYVFPRTANKIIKAQVKAGGGEIAGEEYTPLGHTNYSTLVSKIKEKQPDVIFNTLNGDSNVAFFKQLKDAGISADDMPVMSASVAEEEIRGIGPDVLKGHYAVWNYFQTTNTSENQTFVKNYKKMNGDSRVTSDPIEAGYNAVYLWAAAVEKAKSFDVDKVKKAADGISFKAPGGTVKIDGDTQHLYKTVRIGQITGDGQFKEVWNSGEPVKPDPYLKTYDWAKGLSKGGSHHHHHH
modifications: bsUBP3 (with signal peptide replaced with M and a GGSHHHHHH at C-terminus)
With B8, in data set [5], the “Thermostability ^apoTm” value was found to be 51 °C.

B9: mhUBP2: urea-binding protein from Marinobacter hydrocarbanoclasticus, SEQ ID NO: 13 (protein)
chain: MKVGILHSLSGTMAISETALKDTMLMLIEKQNEAGGVLGRQLEPVVVDPASNWPLFAEKARELLEKEKVDVIFGNWTSVSRKSVLPVVEELNGLLFYPVQYEGEESSENVFYTGAAPNQQAIPAVDYLMNDLGVERWVLAGTDYVYPRTTNKILETYLKDKGVAAGDIMINYTPFGHSDWQTIVSDIKKFGSAGKKTAVVSTINGDANVPFYRELGNQGISATDIPVVAFSVGEQELSGIDTAPLVGHLAAWNYFMSVDNDANYDFIDAWVAYKGDDAAVTNDPMEAHYIGFNMYVEAVKKAGTTDVDEVKDAIIGVSVPNLTGGYATMMPNHHITKPVLIGEIQDNGQFSVVWETPSTVAGDAWSDFLPGSKDLISDWRAPLRAGNFNVVTGKAGGGSADVASNGGSHHHHHH
modifications: mhUBP2 (with signal peptide replaced with M and a GGSHHHHHH at C-terminus, and also comprising C385A and C395A mutations)
Regarding B9, in data set [5], the “Thermostability ^apoTm” value was <25^e ° C.

(Values after patent US11906524B2, “Urea biosensors and uses thereof” (Duke University, priority 2015, dated 2024).)
